# Experimental data from the Immune Epitope Database (IEDB).
# pIC50, pKd: −log10 of the molar value.
# How the values were obtained:
# HLA-A*24:02 = test: IEDB peptide-MHC binding, purified MHC/competitive/fluorescence; ≥ and ≤ were set here for values at or beyond the usual limits of such assays
# HLA-B*07:02 [1] = test: as above
# HLA-B*08:01 [2] = test: as above
# HLA-A*01:01 = test: IEDB peptide-MHC binding, purified MHC/direct/fluorescence; filed as Kd, often an IC50 or EC50 that approximates it; ≥ and ≤ were set here for values at or beyond the usual limits of such assays
# HLA-A*02:01 [3] = test: as above
# HLA-A*02:11 = test: as above; conditions: source organism: Salmonella enterica subsp. enterica serovar Typhimurium str. LT2
# HLA-A*02:19 = test: as above; conditions: source organism: Salmonella enterica subsp. enterica serovar Typhimurium str. LT2
# HLA-A*03:01 = test: as above
# HLA-A*11:01 [4] = test: as above
# HLA-A*31:01 = test: as above
# HLA-A*68:02 = test: as above
# HLA-B*07:02 [5] = test: as above
# HLA-B*08:03 = test: as above
# HLA-B*15:01 [6] = test: as above
# HLA-B*15:17 [7] = test: as above
# HLA-B*18:01 [8] = test: as above
# HLA-B*27:05 = test: as above
# HLA-B*40:01 = test: as above
# HLA-B*46:01 = test: as above
# HLA-B*48:01 = test: as above
# HLA-B*57:01 = test: as above
# HLA-B*58:01 = test: as above
# HLA-A*02:06 = test: IEDB peptide-MHC binding, purified MHC/competitive/fluorescence; filed as Kd, often an IC50 or EC50 that approximates it; ≥ and ≤ were set here for values at or beyond the usual limits of such assays
# HLA-A*26:02 [9] = test: as above; conditions: source organism: Salmonella enterica subsp. enterica serovar Enteritidis
# HLA-A*11:01 [10] = test: IEDB peptide-MHC binding, purified MHC/competitive/fluorescence; ≥ and ≤ were set here for values at or beyond the usual limits of such assays; conditions: source organism: Zaire ebolavirus
# HLA-A*24:03 = test: IEDB peptide-MHC binding, purified MHC/direct/fluorescence; filed as Kd, often an IC50 or EC50 that approximates it; ≥ and ≤ were set here for values at or beyond the usual limits of such assays
# HLA-A*26:01 = test: as above
# HLA-A*30:01 = test: as above; conditions: source organism: Corynebacterium glutamicum
# HLA-B*08:01 [11] = test: as above
# HLA-B*35:01 = test: as above; conditions: source organism: Corynebacterium glutamicum
# HLA-A*26:02 [12] = test: as above
# HLA-A*26:03 = test: as above
# HLA-A*69:01 = test: as above
# HLA-B*15:17 [13] = test: IEDB peptide-MHC binding, purified MHC/competitive/fluorescence; filed as Kd, often an IC50 or EC50 that approximates it; ≥ and ≤ were set here for values at or beyond the usual limits of such assays; conditions: source organism: Vaccinia virus WR
# HLA-A*23:01 = test: IEDB peptide-MHC binding, purified MHC/direct/fluorescence; filed as Kd, often an IC50 or EC50 that approximates it; ≥ and ≤ were set here for values at or beyond the usual limits of such assays; conditions: source organism: Vibrio vulnificus YJ016
# HLA-B*15:09 = test: as above; conditions: source organism: Vibrio vulnificus CMCP6
# HLA-B*18:01 [14] = test: IEDB peptide-MHC binding, purified MHC/competitive/fluorescence; filed as Kd, often an IC50 or EC50 that approximates it; ≥ and ≤ were set here for values at or beyond the usual limits of such assays; conditions: source organism: Vibrio vulnificus YJ016
# HLA-A*02:01 [15] = test: IEDB peptide-MHC binding, purified MHC/competitive/fluorescence; ≥ and ≤ were set here for values at or beyond the usual limits of such assays; conditions: source organism: Zaire ebolavirus
# HLA-B*15:01 [16] = test: as above; conditions: source organism: Zaire ebolavirus
# [17] = source organism: Salmonella enterica
# [18] = source organism: Zaire ebolavirus
# [19] = source organism: Corynebacterium glutamicum
# [20] = source organism: Vibrio cholerae
# [21] = source organism: Vibrio vulnificus CMCP6
# [22] = source organism: Camelpox virus M-96
# [23] = source organism: Vibrio vulnificus YJ016
sequence,measurement,setting,value
TPKAQREIF,pIC50,HLA-A*24:02; source organism: Variola virus,4.85
same,pIC50,HLA-B*07:02 [1]; source organism: Variola virus,4.79
same,pIC50,HLA-B*08:01 [2]; source organism: Variola virus,≤ 3.85
MGKTITDVK,pKd,HLA-A*01:01; [17],≤ 4.70
same,pKd,HLA-A*02:01 [3]; [17],≤ 4.70
same,pKd,HLA-A*02:11,≤ 4.70
same,pKd,HLA-A*02:19,5.22
same,pKd,HLA-A*03:01; [17],≤ 4.70
same,pKd,HLA-A*11:01 [4]; [17],6.38
same,pKd,HLA-A*31:01; [17],5.80
same,pKd,HLA-A*68:02; [17],≤ 4.70
same,pKd,HLA-B*07:02 [5]; [17],≤ 4.70
same,pKd,HLA-B*08:03; source organism: Salmonella enterica subsp. enterica serovar Typhimurium str. LT2,≤ 4.70
same,pKd,HLA-B*15:01 [6]; [17],≤ 4.70
same,pKd,HLA-B*15:17 [7]; [17],≤ 4.70
same,pKd,HLA-B*18:01 [8]; [17],≤ 4.70
same,pKd,HLA-B*27:05; [17],≤ 4.70
same,pKd,HLA-B*40:01; [17],≤ 4.70
same,pKd,HLA-B*46:01; [17],≤ 4.70
same,pKd,HLA-B*48:01; [17],≤ 4.70
same,pKd,HLA-B*57:01; [17],≤ 4.70
same,pKd,HLA-B*58:01; [17],≤ 4.70
same,pKd,HLA-A*02:06; source organism: Salmonella enterica subsp. enterica serovar Enteritidis,6.54
same,pKd,HLA-A*26:02 [9],5.56
HRTIHHASA,pIC50,HLA-A*11:01 [10],≤ 3.81
same,pIC50,HLA-B*08:01 [2]; [18],≤ 3.86
WPALSSIAA,pKd,HLA-A*01:01; [19],≤ 4.70
same,pKd,HLA-A*02:01 [3]; [19],≤ 4.70
same,pKd,HLA-A*03:01; [19],≤ 4.70
same,pKd,HLA-A*11:01 [4]; [19],≤ 4.70
same,pKd,HLA-A*24:03; [19],≤ 4.70
same,pKd,HLA-A*26:01; [19],≤ 4.70
same,pKd,HLA-A*30:01,5.12
same,pKd,HLA-A*31:01; [19],≤ 4.70
same,pKd,HLA-B*07:02 [5]; [19],8.06
same,pKd,HLA-B*08:01 [11]; [19],5.89
same,pKd,HLA-B*15:01 [6]; [19],≤ 5.30
same,pKd,HLA-B*27:05; [19],≤ 4.70
same,pKd,HLA-B*35:01,8.77
same,pKd,HLA-B*40:01; [19],≤ 4.70
same,pKd,HLA-B*58:01; [19],≤ 4.70
NIKHKERIP,pIC50,HLA-B*08:01 [2]; source organism: Vaccinia virus Copenhagen,≤ 3.53
KGHLPLLDK,pKd,HLA-A*01:01; [20],≤ 4.70
same,pKd,HLA-A*02:01 [3]; [20],≤ 4.70
same,pKd,HLA-A*03:01; [20],7.26
same,pKd,HLA-A*26:02 [12]; [21],≤ 4.70
same,pKd,HLA-A*26:03; [21],≤ 4.70
same,pKd,HLA-A*31:01; [20],5.40
same,pKd,HLA-A*68:02; [20],≤ 4.70
same,pKd,HLA-A*69:01; [20],≤ 4.70
same,pKd,HLA-B*07:02 [5]; [20],≤ 4.70
same,pKd,HLA-B*08:01 [11]; [21],≤ 4.70
same,pKd,HLA-B*08:03; [21],≤ 4.70
same,pKd,HLA-B*15:01 [6]; [20],≤ 4.70
same,pKd,HLA-B*15:17 [7]; [20],≤ 4.70
same,pKd,HLA-B*27:05; [20],≤ 4.70
same,pKd,HLA-B*40:01; [20],≤ 4.70
same,pKd,HLA-B*46:01; [20],≤ 4.70
same,pKd,HLA-B*48:01; [20],≤ 4.70
same,pKd,HLA-B*57:01; [20],≤ 4.70
same,pKd,HLA-B*58:01; [20],≤ 4.70
ATNDGLIKK,pKd,HLA-A*01:01; [22],≤ 4.70
same,pKd,HLA-A*02:01 [3]; [22],≤ 4.70
same,pKd,HLA-A*03:01; [22],5.84
same,pKd,HLA-A*11:01 [4]; [22],8.00
same,pKd,HLA-A*26:02 [12]; source organism: Variola virus,≤ 4.70
same,pKd,HLA-A*26:03; source organism: Variola virus,≤ 4.70
same,pKd,HLA-A*31:01; [22],6.92
same,pKd,HLA-A*68:02; [22],≤ 4.70
same,pKd,HLA-A*69:01; [22],≤ 4.70
same,pKd,HLA-B*07:02 [5]; [22],≤ 4.70
same,pKd,HLA-B*08:01 [11]; source organism: Variola virus,≤ 4.70
same,pKd,HLA-B*08:03; source organism: Variola virus,≤ 4.70
same,pKd,HLA-B*15:01 [6]; [22],≤ 4.70
same,pKd,HLA-B*18:01 [8]; [22],≤ 4.70
same,pKd,HLA-B*27:05; [22],≤ 4.70
same,pKd,HLA-B*40:01; [22],≤ 4.70
same,pKd,HLA-B*46:01; [22],≤ 4.70
same,pKd,HLA-B*48:01; [22],≤ 4.70
same,pKd,HLA-B*57:01; [22],≤ 4.70
same,pKd,HLA-B*58:01; [22],5.05
same,pKd,HLA-B*15:17 [13],≤ 4.70
GWPDNYCEW,pKd,HLA-A*01:01; [23],≤ 4.70
same,pKd,HLA-A*02:01 [3]; [23],≤ 4.70
same,pKd,HLA-A*11:01 [4]; [23],≤ 4.70
same,pKd,HLA-A*23:01,6.65
same,pKd,HLA-A*24:03; [23],8.17
same,pKd,HLA-A*26:01; [21],≤ 4.70
same,pKd,HLA-A*31:01; [23],≤ 4.70
same,pKd,HLA-A*68:02; [23],≤ 4.70
same,pKd,HLA-A*69:01; [23],≤ 4.70
same,pKd,HLA-B*07:02 [5]; [23],≤ 4.70
same,pKd,HLA-B*08:01 [11]; [21],≤ 4.70
same,pKd,HLA-B*08:03; [21],≤ 4.70
same,pKd,HLA-B*15:01 [6]; [23],≤ 4.70
same,pKd,HLA-B*15:09,≤ 4.70
same,pKd,HLA-B*15:17 [7]; [23],≤ 4.70
same,pKd,HLA-B*57:01; [23],≤ 4.70
same,pKd,HLA-B*58:01; [23],≤ 4.70
same,pKd,HLA-A*02:06; [23],5.66
same,pKd,HLA-B*18:01 [14],5.64
TIHHASAPL,pIC50,HLA-A*02:01 [15],5.25
same,pIC50,HLA-A*11:01 [10],≤ 4.07
same,pIC50,HLA-A*24:02; [18],4.33
same,pIC50,HLA-B*07:02 [1]; [18],4.83
same,pIC50,HLA-B*08:01 [2]; [18],≤ 3.90
same,pIC50,HLA-B*15:01 [16],4.84
